To fix the notation:
T1: Abp1 SH3 (ABP1_YEAST), P15891
T1 chain: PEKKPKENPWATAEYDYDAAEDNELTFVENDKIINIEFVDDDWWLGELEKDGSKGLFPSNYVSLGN

The assay addresses T1, Abp1 SH3 (ABP1_YEAST), P15891. The assay is described as follows: SPOT array.
In turn, GGKYQGFGSTPAKP [YDL226C 208-221] returned a normalised SPOT signal, Boehringer light units (BLU); mean over the file's lines of this peptide of 56.7.

For the molecule GKLLKSYPTSARP [YGR238C 700-712], the normalised SPOT signal, Boehringer light units (BLU); mean over the file's lines of this peptide worked out at 204.

For the molecule GEEHEPVVEIPKRP [YDR342C 45-58], the normalised SPOT signal, Boehringer light units (BLU); mean over the file's lines of this peptide came to 70.9.

In the case of GGIIPTVNGKPVRP [YBR012W-A 198-211], the normalised SPOT signal, Boehringer light units (BLU); mean over the file's lines of this peptide was 430.

GEGHSDQPQNPKP [YML118W 352-364] gave a normalised SPOT signal, Boehringer light units (BLU); mean over the file's lines of this peptide of 13.4.

On to FWKSLYPELTPYKP [YKR051W 189-202], for which the normalised SPOT signal, Boehringer light units (BLU); mean over the file's lines of this peptide amounted to 97.4.

In turn, GKLVDLTPASMKP [YGR196C 563-575] showed a normalised SPOT signal, Boehringer light units (BLU); mean over the file's lines of this peptide of 41.6.

In turn, FVYPFIRRYTPLKP [YKR093W 407-420] had a normalised SPOT signal, Boehringer light units (BLU); mean over the file's lines of this peptide of 125.

Molecule FSDKNTIPPNEKP [YPR022C 372-384] registered a normalised SPOT signal, Boehringer light units (BLU); mean over the file's lines of this peptide of 147.

The molecule GMTKTPETSPPKRP [YDR200C 28-41] returned a normalised SPOT signal, Boehringer light units (BLU); mean over the file's lines of this peptide of 169.

As to FSHTGLTSFTPERP [YOL138C 597-610], the normalised SPOT signal, Boehringer light units (BLU); mean over the file's lines of this peptide is 92.

Molecule GPQKEEAPKKHRP [YMR076C 1094-1106] gave a normalised SPOT signal, Boehringer light units (BLU); mean over the file's lines of this peptide of 86.6.

GATTLKPATLPAKP [YIL038C 384-397] registered a normalised SPOT signal, Boehringer light units (BLU); mean over the file's lines of this peptide of 160.

Regarding GDLGKEFGTTPEKP [YPL231W 188-201], the normalised SPOT signal, Boehringer light units (BLU); mean over the file's lines of this peptide is 121.

Molecule GKSIYFSDIVPSKP [YJL186W 204-217] gave a normalised SPOT signal, Boehringer light units (BLU); mean over the file's lines of this peptide of 108.

As to GATFAVKEFRPRKP [YOR267C 238-251], the normalised SPOT signal, Boehringer light units (BLU); mean over the file's lines of this peptide is 1130.

As to FTNLQAKPLVGKP [YAR002W 429-441], the normalised SPOT signal, Boehringer light units (BLU); mean over the file's lines of this peptide was found to be 4290.

For GISHTRMPTESRP [YKL165C 94-106], the normalised SPOT signal, Boehringer light units (BLU); mean over the file's lines of this peptide was determined as 80.

In turn, GKNKMHEPKNGRP [YOR006C 4-16] displayed a normalised SPOT signal, Boehringer light units (BLU); mean over the file's lines of this peptide of 224.

GKDKSRPPRPPPKP [YIL095W 743-756] returned a normalised SPOT signal, Boehringer light units (BLU); mean over the file's lines of this peptide of 41900.

Turning to GSNATADVSPPKKP [YDL118W 75-88], the normalised SPOT signal, Boehringer light units (BLU); mean over the file's lines of this peptide amounted to 67.3.

FTYAYVSPTKLKP [YGL140C 277-289]: the normalised SPOT signal, Boehringer light units (BLU); mean over the file's lines of this peptide worked out at 170.

The molecule FYILDKFPLEIRP [YLL018C 442-454] returned a normalised SPOT signal, Boehringer light units (BLU); mean over the file's lines of this peptide of 20.

With GIFNALPPPNTKP [YDL046W 25-37], the normalised SPOT signal, Boehringer light units (BLU); mean over the file's lines of this peptide was determined as 136.

Consider GDEGNRNITAPPRP [YHR031C 65-78], for which the normalised SPOT signal, Boehringer light units (BLU); mean over the file's lines of this peptide turned out to be 77.6.

Turning to GPAPPPPPRASRP [YOR181W 384-396], the normalised SPOT signal, Boehringer light units (BLU); mean over the file's lines of this peptide stood at 8770.

For GLQGDQFPRQQRP [YDR240C 296-308], the normalised SPOT signal, Boehringer light units (BLU); mean over the file's lines of this peptide was 124.

For FSVLIYESLDPDRP [YIR032C 164-177], the normalised SPOT signal, Boehringer light units (BLU); mean over the file's lines of this peptide came out at 143.

The molecule FSGSLKLPNSPRP [YGL135W 49-61] came in with a normalised SPOT signal, Boehringer light units (BLU); mean over the file's lines of this peptide of 478.

On to GDAFQDVEGKPLRP [YOR229W 116-129], for which the normalised SPOT signal, Boehringer light units (BLU); mean over the file's lines of this peptide was 51.6.

GNIVEIAPLIPKKP [YDR080W 593-606]: the normalised SPOT signal, Boehringer light units (BLU); mean over the file's lines of this peptide worked out at 318.

In the case of GALLDEAPEHPRP [YNL314W 80-92], the normalised SPOT signal, Boehringer light units (BLU); mean over the file's lines of this peptide was found to be 82.3.

In turn, FSLMFNTSRLPGKP [YML042W 214-227] showed a normalised SPOT signal, Boehringer light units (BLU); mean over the file's lines of this peptide of 2180.

Turning to GDTVYIVHWEPSKP [YIL154C 237-250], the normalised SPOT signal, Boehringer light units (BLU); mean over the file's lines of this peptide is 48.

As to FSGVTNQPSPIRP [YER129W 662-674], the normalised SPOT signal, Boehringer light units (BLU); mean over the file's lines of this peptide was found to be 67.2.

Regarding GKSRRKTNTKPSRP [YPL137C 17-30], the normalised SPOT signal, Boehringer light units (BLU); mean over the file's lines of this peptide was found to be 65.2.

Molecule GNPLYTTPKTPPRP [YKR028W 953-966] gave a normalised SPOT signal, Boehringer light units (BLU); mean over the file's lines of this peptide of 292.

The molecule GKIELTSPITSKP [YEL019C 178-190] returned a normalised SPOT signal, Boehringer light units (BLU); mean over the file's lines of this peptide of 73.6.

Turning to FYYWLGVPSFQRP [YHR171W 136-148], the normalised SPOT signal, Boehringer light units (BLU); mean over the file's lines of this peptide was 97.

The molecule GNGMYKIPSNTKP [YPL116W 648-660] registered a normalised SPOT signal, Boehringer light units (BLU); mean over the file's lines of this peptide of 499.

GINMKKGFINPRKP [YLL021W 560-573] had a normalised SPOT signal, Boehringer light units (BLU); mean over the file's lines of this peptide of 210.

GKDIPFFPSSEKP [YDR443C 544-556] displayed a normalised SPOT signal, Boehringer light units (BLU); mean over the file's lines of this peptide of 140.

On to FSEKPEETPNPLKP [YKL077W 64-77], for which the normalised SPOT signal, Boehringer light units (BLU); mean over the file's lines of this peptide came to 170.

GLNDSTEPVLHKP [YIL044C 131-143] displayed a normalised SPOT signal, Boehringer light units (BLU); mean over the file's lines of this peptide of 135.

Consider GLKYAQSPKFSKP [YKL212W 605-617], for which the normalised SPOT signal, Boehringer light units (BLU); mean over the file's lines of this peptide turned out to be 131.

In turn, GIKTRKFVFNPPKP [YOR065W 294-307] yielded a normalised SPOT signal, Boehringer light units (BLU); mean over the file's lines of this peptide of 57.2.

Consider GDELSQGPNVLKP [YDR305C 168-180], for which the normalised SPOT signal, Boehringer light units (BLU); mean over the file's lines of this peptide turned out to be 67.5.

In turn, GDHLQNDPLSLRP [YOR316C 398-410] returned a normalised SPOT signal, Boehringer light units (BLU); mean over the file's lines of this peptide of 78.1.

Molecule FVFFKSLPDLPKP [YML104C 41-53] returned a normalised SPOT signal, Boehringer light units (BLU); mean over the file's lines of this peptide of 196.

For the molecule FTDNSLLPSLIKP [YOR317W 178-190], the normalised SPOT signal, Boehringer light units (BLU); mean over the file's lines of this peptide stood at 217.

GAGVLAMPFAFKP [YBL089W 68-80] gave a normalised SPOT signal, Boehringer light units (BLU); mean over the file's lines of this peptide of 79.6.

The molecule GDKYQVDPKTSKP [YLR454W 1837-1849] returned a normalised SPOT signal, Boehringer light units (BLU); mean over the file's lines of this peptide of 51.2.

In the case of GASTIPASNNPSKP [YIL130W 103-116], the normalised SPOT signal, Boehringer light units (BLU); mean over the file's lines of this peptide was 90.9.

As to GAGILAMPYAFKP [YER119C 18-30], the normalised SPOT signal, Boehringer light units (BLU); mean over the file's lines of this peptide amounted to 62.2.

For the origin of these results see paper PMC314469, “Protein Interaction Networks by Proteome Peptide Scanning” (PLoS Biology, 2004).
